The values below come from doi:10.1101/2025.04.26.650775, “Evolution of a fuzzy ribonucleoprotein complex in viral assembly” (bioRxiv, 2025).

The target in data set [1] is SARS-CoV-2 N-protein N:G215C (reduced), full-length (SARS-CoV-2) (UniProt P0DTC9). The data set can be described thus: AUC.
Data set [2] has the same target. The data set can be described thus: mass photometry.
For data set [3], the target named is SARS-CoV-2 N-protein N:G215C* (oxidized), full-length (SARS-CoV-2) (UniProt P0DTC9). Description: mass photometry.
The target of data set [4] is SARS-CoV-2 N-protein N:R203K/G204R, full-length (SARS-CoV-2) (UniProt P0DTC9). Description: mass photometry.
The target of data set [5] is SARS-CoV-2 N-protein Nο (Omicron set N:P13L/Δ31–33/R203K/G204R), full-length (SARS-CoV-2) (UniProt P0DTC9). Description: mass photometry.
The data set “dynamic light scattering” concerns the molecule itself. Description: dynamic light scattering.

By Kd is commonly meant the concentration at which binding is half-saturated. Low values mean higher affinity, high ones lower affinity. Regarding “SARS-CoV-2 N-protein N:G215C (reduced), full-length (from UniProt P0DTC9 1-419) (natural protein)”, in data set [1], the dissociation constant (Kd) is 1000 nM. The molecule also returned a best-fit effective RNP life-time (with SL7 RNA) in data set [2] of 231 s.
Regarding “SARS-CoV-2 N-protein N:G215C* (oxidized), full-length (from UniProt P0DTC9 1-419) (natural protein)”, the best-fit effective RNP life-time (with SL7 RNA) in data set [3] was found to be 41.8 s.
In turn, “SARS-CoV-2 N-protein N:R203K/G204R, full-length (from UniProt P0DTC9 1-419) (natural protein)” yielded a best-fit effective RNP life-time (with SL7 RNA) in data set [4] of 54.6 s.
Molecule “SARS-CoV-2 N-protein Nο (Omicron set N:P13L/Δ31–33/R203K/G204R), full-length (from UniProt P0DTC9 1-419) (natural protein)” displayed a best-fit effective RNP life-time (with SL7 RNA) in data set [5] of 58.5 s.
As for MAGNCGDAALALLLLDRLNQLESKMSGKGQQQQGQTV [LRS peptide N_(210–246):G214C], the binding result in “dynamic light scattering” is given as “binds”.
